From US20100104557A1

Assays:
[1] = molecular target: His-tagged HM1.24 antigen, residues N49-A163 of the extracellular domain (human) (UniProt Q10589); assay: Biacore (SPR): antibody on a protein A chip, HM1.24 antigen as analyte; antibody untreated
[2] = molecular target: His-tagged HM1.24 antigen, residues N49-A163 of the extracellular domain (human) (UniProt Q10589); assay: Biacore (SPR): His-tagged HM1.24 antigen coupled directly to the chip (NHS chemistry), antibody as analyte; separate kd and ka fitting
[3] = molecular target: His-tagged HM1.24 antigen, residues N49-A163 of the extracellular domain (human) (UniProt Q10589); assay: Biacore (SPR): antibody on a protein A chip, HM1.24 antigen as analyte; antibody post incubation (pH 9, 37 C, 4 days)
[4] = molecular target: His-tagged HM1.24 antigen, residues N49-A163 of the extracellular domain (human) (UniProt Q10589); assay: Biacore (SPR): His-tagged HM1.24 antigen coupled directly to the chip (NHS chemistry), antibody as analyte; simultaneous (global Langmuir) fitting

Sequence of His-tagged HM1.24 antigen, residues N49-A163 of the extracellular domain (human) (Q10589 49-163): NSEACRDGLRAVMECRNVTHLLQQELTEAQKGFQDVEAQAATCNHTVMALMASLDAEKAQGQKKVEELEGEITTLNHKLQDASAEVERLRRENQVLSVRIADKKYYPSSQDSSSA

B1: Antibody comprising the HM1.24_H2.2 heavy chain variant and the HM1.24_L4 light chain (antibody, V domains shown)
VH: EVQLVESGGGLVKPGGSLRLSCAASGYTFTPYWMQWVRQAPGKGLEWMGSIFPGSGDTRYSQSFQGQVTISADKSISTAYMELSSLRSEDTAVYYCARGLRRGGYYFDYWGQGTLVTVSS
VL: DIVMTQSPLSLPVTLGQPASISCKASQDVNTAVAWYLQKPGKSPKLLIYSASNRYTGVPDRITGSGSGTDFTLKISRVEAEDVGVYYCQQHYSTPFTFGSGTKLEIKR
koff [1]: 0.00287 s⁻¹ | Kd [2]: 0.0732 nM | koff [2]: 7.02e-05 s⁻¹ | kon [2]: 958000 M⁻¹ s⁻¹ | koff [3]: 0.00257 s⁻¹ | Kd [4]: 0.0826 nM | koff [4]: 7.27e-05 s⁻¹ | kon [4]: 879000 M⁻¹ s⁻¹
